# Experimental data taken from publication PMC8427231, “Mechanism of dimerization and structural features of human LI-cadherin” (The Journal of Biological Chemistry, 2021).
# B1: human LI-cadherin EC1-4 [modified: N-glycans (four modelled on chain A, two on chain B of the crystal structure; sites not printed); N-glycans (four modelled on chain A, two on chain B of the crystal structure; sites not … (parent)
# chain: QEGKFSGPLKPMTFSIYEGQEPSQIIFQFKANPPAVTFELTGETDNIFVIEREGLLYYNRALDRETRSTHNLQVAALDANGIIVEGPVPITIKVKDINDNRPTFLQSKYEGSVRQNSRPGKPFLYVNATDLDDPATPNGQLYYQIVIQLPMINNVMYFQINNKTGAISLTREGSQELNPAKNPSYNLVISVKDMGGQSENSFSDTTSVDIIVTENIWKAPKPVEMVENSTDPHPIKITQVRWNDPGAQYSLVDKEKLPRFPFSIDQEGDIYVTQPLDREEKDAYVFYAVAKDEYGKPLSYPLEIHVKVKDINDNPPTCPSPVTVFEVQENERLGNSIGTLTAHDRDEENTANSFLNYRIVEQTPKLPMDGLFLIQTYAGMLQLAKQSLKKQDTPQYNLTIEVSDKDFKTLCFVQINVID
# Variants of: B1
# Test: SEC-MALS
# Conditions: with itself; injected at 100 μM; read off a plot
row,Variant,screen value [kDa]
1,chain 1 V188A,51.5
2,chain 1 I147A,50.5
3,chain 1 F202A,49.5
4,chain 1 L333A,54.8
5,chain 1 Y377A,53.6
6,chain 1 L149A,51.1

# The next lines start with the values.
row,screen value [kDa],Variant
1,53.1,chain 1 N154A
2,52.4,chain 1 N349A
3,55.1,chain 1 F354A
4,52.7,chain 1 Q382A
5,52.2,chain 1 N200A

# Same assay, conditions: with itself; injected at 50 μM; read off a plot
row,screen value [kDa],Variant
1,58,chain 1 F202A
